# B1: H2-Kb / Ed40 (parent complex)
# chain 1: GDSVTQTEGPVTVSESESLIINCTYSATSIAYPNLFWYVRYPGEGLQLLLKVITAGQKGSSRGFEATYNKETTSFHLQKASVQESDSAVYYCALGDGYTGNYKYVFGAGTRLKVIA
# chain 2: DSGVVQSPRHIIKEKGGRSVLTCIPISGHSNVVWYQQTLGKELKFLIQHYEKVERDKGFLPSRFSVQQFDDYHSEMNMSALELEDSAMYFCASSGASAETLYFGSGTRLTVL
# chain 3: not shown
# chain 4: IQKTPQIQVYSRHPPENGKPNILNCYVTQFHPPHIEIQMLKNGKKIPKVEMSDMSFSKDWSFYILAHTEFTPTETDTYACRVKHDSMAEPKTVYWDRDM
# chain 5: SIINFEKL
# B2: H2-Kb / Ed16-30 (parent complex)
# chain 1: GEQVEQRPPHLSVREGDSAVIICTYTDPNSYYFFWYKQEPGAGLQLLMKVFSSTEINEGQGFTVLLNKKDKQLSLNLTAAHPGDSAVYFCAVSEPSSGQKLVFGQGTILKVYL
# chain 2: EAAVTQSPRNKVAVTGGKVTLSCNQTNNHNNMYWYRQDTGHGLRLIHYSYGAGSTEKGDIPDGYKASRPSQENFSLILELATPSQTSVYFCAGRDTGQLYFGEGSKLTVL
# chain 3: not shown
# chain 4: B1 chain 4
# chain 5: SIINFEKL
# Variants of: B1
# Assay: % of reporter cells activated (NFAT-GFP), raw
# Note: test concentration or dose not given here.
row,ratio to parent,Variant
1,0.958,chain 5 I2R
2,1.15,chain 5 I2V
3,1.1,chain 5 I2S
4,0.869,chain 5 I2E
5,1.14,chain 5 I2L
6,0.697,chain 5 I2Q
7,1.18,chain 5 I2T
8,0.922,chain 5 I2G
9,1.13,chain 5 I2A
10,0.757,chain 5 I2N
11,0.651,chain 5 L8P
12,0.993,chain 5 L8F
13,0.595,chain 5 L8G
14,0.716,chain 5 L8Q
15,0.96,chain 5 L8Y
16,0.885,chain 5 L8T
17,0.831,chain 5 L8V
18,0.822,chain 5 L8H
19,0.612,chain 5 L8E
20,0.546,chain 5 L8D
21,0.897,chain 5 L8M
22,0.895,chain 5 I3L
23,0.488,chain 5 I3W
24,0.523,chain 5 I3C
25,0.69,chain 5 I3V

row,ratio to parent,Variant
1,0.762,chain 5 I3Y
2,0.641,chain 5 I3F
3,0.462,chain 5 I3M
4,0.329,chain 5 I3Q
5,0.423,chain 5 I3T
6,0.207,chain 5 I3R
7,0.319,chain 5 I3G
8,0.166,chain 5 I3D
9,0.534,chain 5 I3N
10,0.527,chain 5 E6Q
11,0.164,chain 5 E6P
12,0.00278,chain 5 E6I
13,0.0475,chain 5 E6W
14,0.0158,chain 5 E6C
15,0.287,chain 5 E6N
16,0.0664,chain 5 E6F
17,0.172,chain 5 E6H
18,0.675,chain 5 E6R
19,0.464,chain 5 E6G
20,0.445,chain 5 E6A
21,0.938,chain 5 F5R
22,0.685,chain 5 F5K
23,0.615,chain 5 F5I
24,1.02,chain 5 F5W
25,0.49,chain 5 F5D

row,ratio to parent,Variant
1,0.52,chain 5 F5E
2,0.891,chain 5 F5N
3,0.601,chain 5 F5Q
4,0.906,chain 5 F5L
5,1.09,chain 5 F5S
6,0.738,chain 5 S1V
7,0.335,chain 5 S1W
8,0.399,chain 5 S1K
9,0.765,chain 5 S1F
10,0.681,chain 5 S1Q
11,0.432,chain 5 S1E
12,0.892,chain 5 S1D
13,0.31,chain 5 S1N
14,0.615,chain 5 S1C
15,0.466,chain 5 S1L
16,0.576,chain 5 S1P
17,1,chain 5 S1G
18,0.977,chain 5 S1Y
19,0.0166,chain 5 N4A
20,0.0147,chain 5 N4S
21,0.00287,chain 5 N4W
22,0.02,chain 5 N4I
23,0.086,chain 5 N4L
24,0.0157,chain 5 N4Y
25,0.00938,chain 5 N4F

row,ratio to parent,Variant
1,0.00333,chain 5 N4T
2,0.00321,chain 5 N4P
3,0.00665,chain 5 N4D
4,0.0118,chain 5 N4G
5,0.00154,chain 5 N4E
6,0.0593,chain 5 N4H
7,0.00232,chain 5 N4M
8,0.362,chain 5 N4R
9,0.0253,chain 5 N4C
10,0.622,chain 5 K7R
11,0.0102,chain 5 K7D
12,0.192,chain 5 K7L
13,0.0429,chain 5 K7M
14,0.648,chain 5 K7S
15,0.165,chain 5 K7I
16,0.224,chain 5 K7V
17,0.343,chain 5 K7A
18,0.296,chain 5 K7P
19,0.644,chain 5 K7W
20,0.0192,chain 5 K7F
21,0.224,chain 5 K7T
22,0.00653,chain 5 K7E

# Variants of: B2
# Assay: % of reporter cells activated (NFAT-GFP), raw
row,ratio to parent,Variant
1,0.558,chain 5 I3H
2,1.11,chain 5 I3V
3,0.64,chain 5 I3P
4,0.507,chain 5 I3N
5,0.425,chain 5 I3M
6,0.779,chain 5 I3K
7,1.23,chain 5 F5C
8,0.752,chain 5 F5E
9,1.21,chain 5 F5L
10,0.798,chain 5 L8N
11,1.06,chain 5 L8H
12,1.13,chain 5 L8Q
13,1.04,chain 5 L8S
14,1,chain 5 L8K
15,1.08,chain 5 L8M
16,1.04,chain 5 L8A
17,0.904,chain 5 L8G
18,1.21,chain 5 I2E
19,0.951,chain 5 I2N
20,1.19,chain 5 I2S
21,0.978,chain 5 I2K
22,1.2,chain 5 I2A
23,0.774,chain 5 I2Y
24,1.06,chain 5 I2P
25,0.387,chain 5 E6L
26,0.508,chain 5 E6A
27,0.399,chain 5 E6M

row,ratio to parent,Variant
1,0.609,chain 5 E6S
2,0.00701,chain 5 E6I
3,0.313,chain 5 S1L
4,0.0535,chain 5 S1E
5,0.186,chain 5 S1C
6,0.0976,chain 5 S1P
7,0.55,chain 5 S1Y
8,0.632,chain 5 S1M
9,0.631,chain 5 S1A
10,0.323,chain 5 S1Q
11,0.025,chain 5 S1F
12,0.716,chain 5 K7T
13,0.687,chain 5 K7V
14,0.162,chain 5 K7D
15,0.0275,chain 5 K7E
16,0.381,chain 5 K7G
17,0.74,chain 5 K7W
18,0.61,chain 5 K7I
19,0.0223,chain 5 N4S
20,0.0853,chain 5 N4K
21,0.0158,chain 5 N4A
22,0.318,chain 5 N4R
23,0.0762,chain 5 N4M
24,0.0259,chain 5 N4T
25,0.0363,chain 5 N4C
26,0.165,chain 5 N4H
